# Laboratory results from the DeepSol protein solubility set.
# Assay: soluble on expression in E. coli; label from the status in PepcDB or PDB records
row,Sequence,soluble on expression in E. coli
1,MDESTCPIIEAIREVGKENDLLVIRLLSDNDLGFNQILKLAGKMSPKTLSVTLKRLTEKKIIYRDVVSTQPFRVKYRLTEKGQELRNVLNDLGQWGERWILNNESQSAVNTENYRLKS,not soluble
2,MGSDKIHHHHHHMKKTIILSDENYYSQEADLAYMSVSQYKKFLECEAAALAKLKGEWTPENDPKALLVGNYVHSYFESPEIHEAFKEENKSKMFSSRKPFGLLKDFQIAEQMIERLKQEEAFLNIYQGEKEVIVTGEIGGAMWKGKIDCLNLEEKYFVDIKTTKDMHEKKWDERLNRKANFIERFGYVLQMAVYCELLRQQYDKIFLPLIAAVSKQTPSEAKLITLSEEKMIYELEELKENIEHVVRVKNGEEEPVSCGICEYCRGHNKITNFTSMDDL,not soluble
3,MGSDKIHHHHHHVPSGNGDNPATGARGGNMEISFLVPNSSNGSRAASAEDSGVYEDGTAEEYKVSNVTLYLFDSSSKNLVTTINVTQSDLGAGTSSGESSKEGQTIVYPCNKEITVKPGNYDILAVANGSQTFEIGQESTLLGQIDASTYGNGMITSVPGSGFIMSNRGSANMNITVESPEESDTKTQVRINLERAVAKLMVRNDSKEIYTLKNPAGVTYATVRLNNYKFINLANKFYTFRHVATLDNAPETPSAPSSYSVEAGNFGNIADNNGYLIDPYFFDKTVAGATTNFTGGSFYTNHLSKQTDSNWSGLADAGKYVSMYCLENCMFRPAQNTVYTTGIMLKGTFTPEASQTIGNNGNPVEDPLVFNTLYYFNYKFYTTLAAVGKYGDANIDGLTEESSDAELAAKQITRFTKNGGNFSTFYNYWIKHLDNNNPTVMGVMEFGIVRNNIYSVNITSIKNLGPGTPDTKPDPDENKAFLDVEFGVYPWIVRDQDADLE,not soluble
4,GPGSMFYKMKLERNIKVEPHLLERTLHRHLEEYLRKAVEGTPLHLSLGNALRSGLARTNQNSSAVIIAVLDILNTSSLEGRVLDDGSVSFFVKYEGLVFKLHRGEVIDVIVSSVEREGWWGDVMGVGRMYISRGQMGNEWVYESDGMRGIWITKDGARSVKEGEIVRVRVVAETPQSEGVLAVGSMVGNYLGPL,not soluble
5,MEHFDVAIIGLGPAGSALARKLAGKMQVIALDKKHQCGTEGFSKPCGGLLAPDAQRSFIRDGLTLPVDVIANPQIFSVKTVDVAASLTRNYQRSYININRHAFDLWMKSLIPASVEVYHDSLCRKIWREDDKWHVIFRADGWEQHITARYLVGADGANSMVRRHLYPDHQIRKYVAIQQWFAEKHPVPFYSCIFDNAITDCYSWSISKDGYFIFGGAYPMKDGQTRFTTLKEKMSAFQFQFGKAVKSEKCTVLFPSRWQDFVCGKDNAFLIGEAAGFISASSLEGISYALDSAEILRAVFLKQPEKSNAAYWRATHKLRLKLFGKIVKSRCLTAPALRKWIMRSGVAHIPQLKDYPTRFTSPTSRM,not soluble
6,MSSQPNQSLIDGIRCLQYLVSSDRAIGCRELARLMDINTTRVNRLLMTMASIGLTMQDEHRRYLPGPGIHALAAQAIRGSALFSHALPILERHAPKDIVVALGVLWEDQIIYIYHSTPGSQGSQALAGFRMYPAWQSVPGVALLAAESDEALMQRFTPEQWRNLAPHVAQQRQRGYVLWHHADGEVSMAQPLGKHAAALAFAGMWRIDEAEAAARLQALKALNQLIAQ,not soluble
7,MLAAYRGRVMTRIAVELSLLTFVRSSELRFARWDEFDFDKSLWRIPAKREEIKGVRYSYRGMKMKEEHIVPLSRQAMILLEQLKQISGDKELLFPGDHDATKVMSENTVNSALRAMGYDTKTEVCGHGFRTMARGALGESGLWSEDAIERQLSHSERNSVRAAYIHTSEHLDERRLMVQWWADYLDANKIKPLEHHHHHH,not soluble
8,MMNWKQLISAKRFGMEEFHEERQENRSEFQRDYDRLIFSAPFRRLQNKTQVFPLPGSIFVHNRLTHSLEVSCVGRSLGNDVAKAILERQPELESSFLPEIGSIVSAACLAHDLGNPPFGHSGERAISTFFSEGKGQRLQEKQPDGEQLSPMEWEDLTHFEGNANAFRILTHQFEGRRRGGFVLTYSTLASIVKYPFSSSLAGKKSKFGFFVSEEESYRKIATELGLIQLSEQPLKYARHPLVYLVEAADDICYQMMDIEDAHKLKIITTDETKELLMAFFSEDRQSRLRSTFQIVNDINEQIAYLRSSVIGLLVRECTRVFLEHEQEILAGTFEGALIKHIAEGPAAAYNHCAEISLKRIYRSQDVLDIELAGFRIISTLLELMVDAVTLPGKEKAYSELLTNRVSDQYNIKSPVLYERIQAVLDYISGMTDVFALDLYRKINGNSLPAV,not soluble
9,GILDPEERYEHQLRQLNDMGFFDFDRNVAALRRSGGSVQGALDSLLNGDV,soluble
10,AHHHHHHGSKEIVERVKTKTKIPVYERSVENVLSAVLASDDIWRIVDLSEEPLPLVVAILESLNELGYVTFEDGVKLTEKGEELVAEYGIGKRYDFTCPHCQGKTVDLQAFADLLEQFREIVKDRPEPLHEFDQAYVTPETTVARVILMHTRGDLENKDIFVLGDDDLTSIALMLSGLPKRIAVLDIDERLTKFIEKAANEIGYEDIEIFTFDLRKPLPDYALHKFDTFITDPPETLEAIRAFVGRGIATLKGPRCAGYFGITRRESSLDKWREIQKLLLNEFNVVITDIIRNFNEYVNWGYAEETRAWKLIPIKKLPEYNWYKSYMFRIETLEGSRGYEDEIPEEDIYNDEESSTT,soluble
11,MGQRGQVCQGRCMAEDQQSSQISDTVPALRRAVRILDLVAGSPRDLTAAELTRILDLPKSSAHGLLAVMTELDLLARSADGTLRIGPHSLRWANGFLSHLDIVSTFNDHLAQRHDLDPYTVTLTVREGGEVVYIGCRNSAQPLGHTFRIGMRLPAPFTATGKILLSDLGPGELRMLFSQFPQPLTSRSVAGLSQLEEELALTRARGYSIDDGQIREGMLCIGAAIRDYSGAASAGIAISLIRSEASDEKIASLGEELRTTANALSEKLGYRSQKD,not soluble
12,MSLKYSSTTADYLVWSDAMNLIRKLAKDENYKISLLIALGCFTGLRISDILSLRWKQILDADEFTVIEKKTDKVRTIRLNPQLQHHIKECYEHINPVGINAPILISQKGTIFTVQRINIILKEVKKKYRLKIKNFSCHSLRKTFGRQVYNMNSDNAELALVKLMELFNHSSVAITKRYLGLRQEEILQTYDCLSF,not soluble
13,MGSDKIHHHHHHMGQPFVHPTGVTIYNPEKCFNGYTIMQAPGLGCVLIDMNGNVVRVFKDLHGFPNKLLPGGYVMGSRGRRNGKFGYQDQIDLVQVDWDGQVVWEFAKKEYIEDEGEKPQWMARQHHDYQREGNPVGYYVPGMECKTNSGNTLILSHQNCYHKKISDKQLLDDVIIEVDWDGNIVWEWHAVDHFHEYGFSAAAKLALYRNPNMHEAGGGMGDWMHINSASVLGPNKWYDKGDERFHPDNIIWDAREANIMAIISKETGKVVWKMGPDFAQDKKLRKIGQIIGQHHVHMIPQGLPGAGNILIFDNGGWAGYGAPNNVSKDGTKVDMADRSRVLELNPVTMEVVWQLKASELMDYGQPGISDYRFYSPLTSAAQRLPNGNTLITEGCGGRFFEVTRMKEVVWEFISPFNANPATIYYRAYRYPYSYVPQLPEPKETPVPMLDIRKFRVPGAASCEVQHVVGVEGTIGYPAMQQACVAAADQDLSLKDDDDDDLFSRSF,not soluble
14,MFTTKGIDISGELTMMGIPEQNSKTVTPGLHYAADGFRLSGGNANFIARNMASVTGNIYADDAATITLGQPETETPTISSAYQAWAETLLYGFDTAYRGAITAPKATVSMNNAIWHLNSQSSINRLETKDSMVRFTGDNGKFTTLTVDNLTIDDSAFVLRANLAQADQ,not soluble
15,MSAAGDLRRRARLSRLVSFSASHRLHSPSLSDEENLRVFGKCNNPNGHGHNYKVVVTVHGEIDPVTGMVMNLTDLKEYMEEAIMKPLDHKNLDLDVPYFADAVSTTENVAVYIWESLQKLLPVGALYKVKVFETDNNIVVYKGE,soluble
